# Like-named read-outs stand apart in the source and are kept apart here.
# T1: human CD39-His (human, UniProt P49961)
# T1 chain: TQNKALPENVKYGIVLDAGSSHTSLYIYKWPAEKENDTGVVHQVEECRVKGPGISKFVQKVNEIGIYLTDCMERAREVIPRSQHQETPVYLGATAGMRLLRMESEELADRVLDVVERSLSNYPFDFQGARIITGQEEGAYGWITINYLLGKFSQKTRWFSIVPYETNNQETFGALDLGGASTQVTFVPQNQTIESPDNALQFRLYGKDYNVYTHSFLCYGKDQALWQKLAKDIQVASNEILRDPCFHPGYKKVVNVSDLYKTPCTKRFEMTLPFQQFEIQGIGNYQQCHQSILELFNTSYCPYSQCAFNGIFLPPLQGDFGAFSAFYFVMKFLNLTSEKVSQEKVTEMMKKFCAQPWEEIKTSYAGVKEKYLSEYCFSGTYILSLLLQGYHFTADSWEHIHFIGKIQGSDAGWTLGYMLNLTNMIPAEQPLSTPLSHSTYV
# B1: B391-F04 (designed binder)
# chain: QLQLVESGGGLVQPGGSLRLSCAASGFTFSNLGMSWYRQAPGKAREWVGSISASGDYTTYQNSVKGRFTISRDNAKNTLYLQMNNLKPEDTGVYYCTRRVDSYPRGQGTQVTVSS
# Experiments:
# human CD39-His [1] = biological target: T1, human CD39-His; test: BLI
# human CD39-His [2] = biological target: T1, human CD39-His; test: BLI
binder,measurement,setting,value
B1,Kd,human CD39-His [1],0.398 nM
same,Kd,human CD39-His [2],0.255 nM

# Source: US20260286002 (published 2026)
